Source: FireProtDB (doi:10.1002/prot.340080106)

B1: Protein S100-G, P02633 (parent)
chain: MSAKKSPEELKGIFEKYAAKEGDPNQLSKEELKLLLQTEFPSLLKGPSTLDELFEELDKNGDGEVSFEEFQVLVKKISQ

Variants of: B1
Details: Bos taurus; pH 7; 25 °C; Urea; CD; PIPES-KOH 20 mM; reversible: yes; structure 1IGV; whole UniProt chain shown

**Q.** With E21Q as the variant, how does the “ddG of mutation (higher = less stable)” value read?
**A.** -0.38 kcal/mol

**Q.** What about the “denaturant midpoint (higher = more stable)” value (“denaturant midpoint” below) of the same variant?
**A.** 5.6 M

**Q.** And the unfolding free energy?
**A.** 0.67 kcal/mol

**Q.** With E21Q D23N E30Q as the variant, how does the “ddG of mutation (higher = less stable)” value read?
**A.** -0.93 kcal/mol

**Q.** And the “denaturant midpoint” value?
**A.** 6.1 M

**Q.** And the unfolding free energy?
**A.** 1.22 kcal/mol

**Q.** Which results are given for E21Q D23N?
**A.** ddG of mutation (higher = less stable): -1.19 kcal/mol; denaturant midpoint (higher = more stable): 6.2 M; unfolding free energy: 1.48 kcal/mol

**Q.** With D23N E30Q as the variant, how does the “ddG of mutation (higher = less stable)” value read?
**A.** -0.52 kcal/mol

**Q.** And the “denaturant midpoint” value?
**A.** 5.8 M

**Q.** What about the unfolding free energy of the same variant?
**A.** 0.81 kcal/mol
